# In paper PMC5595295 (Acta Pharmaceutica Sinica. B, 2017):
# Target: hA3G-HA (human, UniProt Q9HC16 1-384)
# Assay: co-IP
row,"percent inhibition of binding to wild type hA3G (co-IP, band quantification)",Binder
1,~80%,"hA3G W127A-EYFP (natural protein, human, UniProt Q9HC16 1-384, looked up) MKPHFRNTVERMYRDTFSYNFYNRPILSRRNTVWLCYEVKTKGPSRPPLDAKIFRGQVYSELKYHPEMRFFHWFSKWRKLHRDQEYEVTWYISWSPCTKCTRDMATFLAEDPKVTLTIFVARLYYFADPDYQEALRSLCQKRDGPRATMKIMNYDEFQHCWSKFVYSQRELFEPWNNLPKYYILLHIMLGEILRHSMDPPTFTFNFNNEPWVRGRHETYLCYEVERMHNDTWVLLNQRRGFLCNQAPHKHGFLEGRHAELCFLDVIPFWKLDLDQDYRVTCFTSWSPCFSCAQEMAKFISKNKHVSLCIFTARIYDDQGRCQEGLRTLAEAGAKISIMTYSEFKHCWDTFVDHQGCPFQPWDGLDEHSQDLSGRLRAILQNQEN"
2,< 50%,"hA3G Y124A-EYFP (natural protein, human, UniProt Q9HC16 1-384, looked up) MKPHFRNTVERMYRDTFSYNFYNRPILSRRNTVWLCYEVKTKGPSRPPLDAKIFRGQVYSELKYHPEMRFFHWFSKWRKLHRDQEYEVTWYISWSPCTKCTRDMATFLAEDPKVTLTIFVARLAYFWDPDYQEALRSLCQKRDGPRATMKIMNYDEFQHCWSKFVYSQRELFEPWNNLPKYYILLHIMLGEILRHSMDPPTFTFNFNNEPWVRGRHETYLCYEVERMHNDTWVLLNQRRGFLCNQAPHKHGFLEGRHAELCFLDVIPFWKLDLDQDYRVTCFTSWSPCFSCAQEMAKFISKNKHVSLCIFTARIYDDQGRCQEGLRTLAEAGAKISIMTYSEFKHCWDTFVDHQGCPFQPWDGLDEHSQDLSGRLRAILQNQEN"
